Reference: article PMC6446880

T1: IRF3 K359A (IRF3 (K359A)-his) (UniProt P70671 1-419, K359A)
T1 sequence: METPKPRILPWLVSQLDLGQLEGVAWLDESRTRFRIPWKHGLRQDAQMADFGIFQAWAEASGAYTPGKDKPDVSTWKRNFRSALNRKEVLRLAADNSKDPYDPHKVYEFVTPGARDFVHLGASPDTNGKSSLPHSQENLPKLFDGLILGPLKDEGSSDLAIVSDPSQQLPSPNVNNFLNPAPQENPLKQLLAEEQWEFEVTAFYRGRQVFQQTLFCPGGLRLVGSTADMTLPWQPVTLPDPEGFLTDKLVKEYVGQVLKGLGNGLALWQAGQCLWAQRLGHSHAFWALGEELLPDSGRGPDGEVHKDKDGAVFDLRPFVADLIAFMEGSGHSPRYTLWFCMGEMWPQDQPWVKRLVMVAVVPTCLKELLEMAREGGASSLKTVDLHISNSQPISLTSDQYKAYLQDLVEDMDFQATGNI


Target: T1, IRF3 K359A (IRF3 (K359A)-his)
Test: EMSA

Binder | binding result
IFN-α (Ifna4) promoter probe (dsDNA) DNA 1: GAAAGTGAAAAGAGAATTGGAAAGC DNA 2: GCTTTCCAATTCTCTTTTCACTTTC | binds
IFN-β (Ifnb) promoter probe (dsDNA) DNA 1: GAAAACTGAAAGGGAGAACTGAAAGT DNA 2: ACTTTCAGTTCTCCCTTTCAGTTTTC | binds
